Three substances from publication PMC4402506 can be followed below.

Some test systems named below: RecQ (Escherichia coli); Tfam (human); EcoRV.
Common to all, as to assay: filter binding
Common to all, as to details: Nitrocellulose filter binding, 0.5 ml, 37 C, 30-60 min, then agarose gel. Topo IV: 40 mM Tris-HCl pH 7.5, 6 mM MgCl2, 100 mM KOAc, 1 mM DTT, 0.1 mM EDTA

Series [1] relates to Topo IV (ParC+ParE) (Escherichia coli).
For series [2], the system named is ntop1 Y723F (nuclear topoisomerase I) (human).
In series [3] the test system is top1mt Y559F (mitochondrial topoisomerase I) (human).

“pBR322, negatively supercoiled topoisomer dLk about -23 (unresolved band below -10)” came in with a binding signal (fold Ka vs relaxed) in series [1] of 5.
In turn, pBR322, nicked (open circular) gave a binding signal (Ka nicked/Ka relaxed) in series [2] (nick, position undefined) of 8.6.
As for “pBR322, relaxed closed circular (dLk 0; dLk -1 as reference for Topo IV and Tfam)”, the binding signal (Ka ratio (reference dLk 0)) (in series [3]; in the series with RecQ (Escherichia coli); in the series on EcoRV; in series [2]) was 1 in each case. Also, the binding signal (Ka ratio (reference dLk -1)) (in the series with Tfam (human); in series [1]) was 1 in each case.
